Reference: paper PMC12196928, “Site-Directed Mutagenesis Mediated by Molecular Modeling and Docking and Its Effect on the Protein–Protein Interactions of the bHLH Transcription Factors SPATULA, HECATE1, and INDEHISCENT” (Plants, 2025)
Residue numbers refer to the chain shown, from its start. Numbers in names are those of the source.

T1: VN:SPT-4A (SPATULA V176A-V177A-D178A-E179A fused to the N-terminal fragment of Venus YFP) (Arabidopsis thaliana, UniProt Q9FUA4 1-373, V176A | V177A | D178A | E179A)
T1 construct: SPATULA (SPT), Arabidopsis thaliana, AT4G36930; source: Arabidopsis Col-0 mesophyll protoplasts, transfected (PEG-Ca), in cells; not shown: Venus YFP N-terminal fragment (residues 1-154)
T1 sequence (looked up): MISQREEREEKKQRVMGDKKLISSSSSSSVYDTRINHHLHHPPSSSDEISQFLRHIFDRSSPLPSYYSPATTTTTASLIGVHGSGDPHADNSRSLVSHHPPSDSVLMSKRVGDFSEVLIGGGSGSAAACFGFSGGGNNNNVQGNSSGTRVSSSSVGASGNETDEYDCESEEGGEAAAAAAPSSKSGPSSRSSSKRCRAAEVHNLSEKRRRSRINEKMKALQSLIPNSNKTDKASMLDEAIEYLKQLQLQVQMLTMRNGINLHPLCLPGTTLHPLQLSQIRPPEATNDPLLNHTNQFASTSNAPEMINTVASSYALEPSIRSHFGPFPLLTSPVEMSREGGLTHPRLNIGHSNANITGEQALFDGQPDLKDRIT

T2: VN:SPT (SPATULA fused to the N-terminal fragment of Venus YFP) (Arabidopsis thaliana, UniProt Q9FUA4 1-373)
T2 construct: SPATULA (SPT), bHLH transcription factor of Arabidopsis thaliana, AT4G36930; source: Arabidopsis Col-0 mesophyll protoplasts, transfected (PEG-Ca), in cells; not shown: Venus YFP N-terminal fragment (residues 1-154)
T2 sequence (looked up): T1 sequence (looked up) with A176V, A177V, A178D, A179E

B1: VC:IND (INDEHISCENT fused to the C-terminal fragment of Venus YFP) (natural protein, Arabidopsis thaliana, UniProt O81313 1-198, looked up)
chain: MENGMYKKKGVCDSCVSSKSRSNHSPKRSMMEPQPHHLLMDWNKANDLLTQEHAAFLNDPHHLMLDPPPETLIHLDEDEEYDEDMDAMKEMQYMIAVMQPVDIDPATVPKPNRRNVRISDDPQTVVARRRRERISEKIRILKRIVPGGAKMDTASMLDEAIRYTKFLKRQVRILQPHSQIGAPMANPSYLCYYHNSQP
notes: INDEHISCENT (IND), bHLH transcription factor of Arabidopsis thaliana, AT4G00120; source: Arabidopsis Col-0 mesophyll protoplasts, transfected (PEG-Ca), in cells; not shown: Venus YFP C-terminal fragment (residues 155-238)
B2: VC:IND-3A (INDEHISCENT N112A-R113A-R114A fused to the C-terminal fragment of Venus YFP) (natural protein, Arabidopsis thaliana, UniProt O81313 1-198, looked up)
chain: B1 chain with N112A, R113A, R114A
notes: INDEHISCENT (IND), Arabidopsis thaliana, AT4G00120; the methods list only VC:IND-3A; source: Arabidopsis Col-0 mesophyll protoplasts, transfected (PEG-Ca), in cells; not shown: Venus YFP C-terminal fragment (residues 155-238)
B3: VC:HEC1 (HECATE1 fused to the C-terminal fragment of Venus YFP) (natural protein, Arabidopsis thaliana, UniProt Q9FHA7 1-241, looked up)
chain: MDSDIMNMMMHQMEKLPEFCNPNSSFFSPDHNNTYPFLFNSTHYQSDHSMTNEPGFRYGSGLLTNPSSISPNTAYSSVFLDKRNNSNNNNNGTNMAAMREMIFRIAVMQPIHIDPEAVKPPKRRNVRISKDPQSVAARHRRERISERIRILQRLVPGGTKMDTASMLDEAIHYVKFLKKQVQSLEEQAVVTGGGGGGGGRVLIGGGGMTAASGGGGGGGVVMKGCGTVGTHQMVGNAQILR
notes: HECATE1 (HEC1), bHLH transcription factor of Arabidopsis thaliana, AT5G67060; source: Arabidopsis Col-0 mesophyll protoplasts, transfected (PEG-Ca), in cells; not shown: Venus YFP C-terminal fragment (residues 155-238)

How the values were obtained:
VN:SPT-4A (SPATULA …) = target: T1, VN:SPT-4A (SPATULA …); experiment: split reporter (BiFC, NanoBiT); BiFC with split Venus YFP (VN 1-154, VC 155-238) in Arabidopsis Col-0 mesophyll protoplasts, PEG-Ca transfection, 35S promoter, read 16 h after transfection by confocal microscopy; frequency = YFP-positive protoplasts/total protoplasts x 100, four images of about 200 protoplasts each; conditions: partners not purified
[1] = target: T2, VN:SPT (SPATULA fused to the N-terminal …); experiment: as above; conditions: partners not purified

Binder | average interaction frequency (percent of protoplasts with YFP signal) (VN:SPT-4A (SPATULA …)) | average interaction frequency (percent of protoplasts with YFP signal) [1]
B1 | 13.5% | –
B2 | 14.9% | 13%
B3 | – | 34.2%
